Paper doi:10.1101/2020.08.11.243964

Target: Human connexin 26 protein (hCx26) (human) (UniProt P29033)
Test: cryo-EM structure

Human connexin 26 protein (hCx26) (from UniProt P29033) (natural protein)
stoichiometry N: 12
